{"source": "paper PMC5803408", "about": "(Structure (London, England : 1993), 2018)", "molecules": {"B1": {"name": "K644E/K646E: UHRF1 with K644E/K646E mutations in the PBR sequence (previous study) (protein, UniProt Q96T88 1-793, looked up, variant K644E K646E)", "E3 ubiquitin-protein ligase …": "MWIQVRTMDGRQTHTVDSLSRLTKVEELRRKIQELFHVEPGLQRLFYRGKQMEDGHTLFDYEVRLNDTIQLLVRQSLVLPHSTKERDSELSDTDSGCCLGQSESDKSSTHGEAAAETDSRPADEDMWDETELGLYKVNEYVDARDTNMGAWFEAQVVRVTRKAPSRDEPCSSTSRPALEEDVIYHVKYDDYPENGVVQMNSRDVRARARTIIKWQDLEVGQVVMLNYNPDNPKERGFWYDAEISRKRETRTARELYANVVLGDDSLNDCRIIFVDEVFKIERPGEGSPMVDNPMRRKSGPSCKHCKDDVNRLCRVCACHLCGGRQDPDKQLMCDECDMAFHIYCLDPPLSSVPSEDEWYCPECRNDASEVVLAGERLRESKKKAKMASATSSSQRDWGKGMACVGRTKECTIVPSNHYGPIPGIPVGTMWRFRVQVSESGVHRPHVAGIHGRSNDGAYSLVLAGGYEDDVDHGNFFTYTGSGGRDLSGNKRTAEQSCDQKLTNTNRALALNCFAPINDQEGAEAKDWRSGKPVRVVRNVKGGKNSKYAPAEGNRYDGIYKVVKYWPEKGKSGFLVWRYLLRRDDDEPGPWTKEGKDRIKKLGLTMQYPEGYLEALANREREKENSKREEEEQQEGGFASPRTGEGEWKRKSAGGGPSRAGSPRRTSKKTKVEPYSLTAQQSSLIREDKSNAKLWNEVLASLKDRPASGSPFQLFLSKVEETFQCICCQELVFRPITTVCQHNVCKDCLDRSFRAQVFSCPACRYDLGRSYAMQVNQPLQTVLNQLFPGYGNGR"}}, "key": {"[1]": {"target": "T1, human UHRF1 TTD domain (residues 126-284) N194A (human, UniProt Q96T88 126-284, N194A)", "T1 sequence (looked up)": "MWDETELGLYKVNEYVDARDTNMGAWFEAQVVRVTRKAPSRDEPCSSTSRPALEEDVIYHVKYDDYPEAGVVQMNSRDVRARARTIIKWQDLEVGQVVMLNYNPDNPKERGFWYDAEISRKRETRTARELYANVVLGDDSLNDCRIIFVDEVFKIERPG", "experiment": "ITC"}, "[2]": {"target": "T2, human UHRF1 TTD-PHD dual domains (residues 126-366) (human, UniProt Q96T88 126-366)", "T2 sequence (looked up)": "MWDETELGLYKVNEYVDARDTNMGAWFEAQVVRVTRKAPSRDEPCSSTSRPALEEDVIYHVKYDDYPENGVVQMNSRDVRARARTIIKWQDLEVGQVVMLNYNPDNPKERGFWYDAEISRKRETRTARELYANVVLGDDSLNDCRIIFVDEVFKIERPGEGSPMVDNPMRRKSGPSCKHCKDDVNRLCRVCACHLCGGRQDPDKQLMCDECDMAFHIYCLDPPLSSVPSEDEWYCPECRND", "experiment": "ITC"}, "[3]": {"target": "T3, human UHRF1 TTD domain (residues 126-284) N147A (human, UniProt Q96T88 126-284, N147A)", "T3 sequence (looked up)": "T1 sequence (looked up) with N22A, A69N", "experiment": "ITC"}, "[4]": {"target": "T4, human UHRF1 TTD domain (residues 126-284) D142A/E153A (human, UniProt Q96T88 126-284, D142A | E153A)", "T4 sequence (looked up)": "T1 sequence (looked up) with D17A, E28A, A69N", "experiment": "cell-based or functional assay"}, "chromatin": {"system": "chromatin", "conditions": "previous study; ref Zhang et al., 2015; cited from earlier work"}}, "note": "Substitutions are numbered along the chain they refer to. Names may count otherwise.", "data": [{"molecule": "EGGFASPRTGKGKWKRKSAGGGPSRAGSPRRT (peptide, UniProt Q96T88 634-665, looked up)", "note": "[human UHRF1 PBR peptide (residues 634-665)]", "values": [{"measurement": "binding result", "setting": "[1]", "value": "binds"}, {"measurement": "fold weaker binding than to TTD", "setting": "[2]", "value": "~3", "unit": "fold"}, {"measurement": "binding result", "setting": "[3]", "value": "binds"}, {"measurement": "FRET ratio of the CFP-UHRF1 (D142A/E153A)-YFP mutant, intramolecular", "setting": "[4]", "value": 0.52}]}, {"molecule": "B1", "values": [{"measurement": "chromatin binding of UHRF1 with K644E/K646E mutations in PBR", "setting": "chromatin", "value": "reduced chromatin binding of UHRF1"}]}]}
